# Key:
# PspF1–275 F85Y = PspF1–275 F85Y (E. coli, UniProt P37344 1-275, F85Y); test: native gel or EMSA
# PspF1–275 T86S = PspF1–275 T86S (E. coli, UniProt P37344 1-275, T86S); test: native gel or EMSA
Binder,binding result (PspF1–275 F85Y),binding result (PspF1–275 T86S)
"QLQQAIRL (peptide, UniProt P06223 18-25, looked up) [σ54RI peptide fragment, residues 18–25 (Patch 1)]",binds,–
"LQQELQQ (peptide, UniProt P06223 33-39, looked up) [σ54RI peptide fragment, residues 33–39 (Patch 2)]",binds,binds

# — paper PMC3467059 (Nucleic Acids Research, 2012)
